Data set [1] in a line: Golgi residence time, live imaging with CHX. To be noted: glycan lost; control: DMSO.
Data set [2] in a line: immunofluorescence, colocalisation with GM130. To be noted: glycan lost; control: DMSO.

transferrin receptor (TfR): GalNAc-O-Bn: the localisation_or_trafficking result in data set [1] is “increases”; in data set [2], “changes”.

Source of the values: PMC7586228.
